The values below come from patent US20120302734A1 (COMMONWEALTH SCIENTIFIC AND INDUSTRIAL RESEARCH ORGANISATION, published 2012).

The series deals with the molecule itself. Briefly: dynamic light scattering after SDS removal, against 9.2 nm for the monomeric SDS-protein solution; self-association. On the procedure:
The AmelF3 honeybee silk protein was expressed into the inclusion bodies of E. coli. AmelF3 inclusion bodies were unfolded using equivalent dry weight of the detergent sodium dodecyl sulphate (SDS) to generate 2-4% monomeric protein solutions. Dynamic light scattering (DLS) measured the hydrodynamic diameter of particles in the protein-detergent solution diluted ten-fold in 100 mM NaCl as 9.2+/−0.1 nm (peak containing 98.2% of particle volume). The diameter of SDS micelles in 3% SDS solutions without protein under the same experimental conditions was a single peak at 5.5+/−0.2 nm. No SDS micelles were detected in the SDS—protein solutions confirming that the majority of the SDS was bound to the protein.
Proteins were refolded by removing SDS using KCl. […] The protein solutions were dialysed against water to reduce salt levels then concentrated by dialysis against PEG8000, resulting in 3-4% protein and 0.2-0.4% SDS concentration.

B1: Honeybee silk protein Xenospira3 (AmelF3), recombinant, without signal peptide (other)
chain: GVEEFKSSATEEVISKNLEVDLLKNVDTSAKRRENGAPVLGKNTLQSLEKIKTSASVNAKAAAVVKASALALAEAYLRASALSAAASAKAAAALKNAQQAQLNAQEKSLAALKAQSEEEAASARANAATAATQSALERAQASSRLATVAQNVASDLQKRTSTKAAAEAAATLRQLQDAERTKWSANAALEVSAAAAAAETKTTASSEAANAAAKKAAAIASDADGAERSASTEAQSAAKIESVAAAEGSANSASEDSRAAQLEASTAARANVAAAVGDGAIIGLGEEAGAAAQLLAQAKALAEVSSKSENIEDKKF
notes: The cloning primer may add an N-terminal Met
As to B1, the binding result is “binds”.
